# Measurements: patent US20240327530A1 (ICHNOS SCIENCES, published 2024)
# T1: Recombinant mouse IL-1RAP-his (Sino Biologicals, catalog no. 52657-M08H) (mouse, UniProt Q61730 21-350)
# T1 construct: Bought; not shown: His tag of the bought protein
# T1 sequence: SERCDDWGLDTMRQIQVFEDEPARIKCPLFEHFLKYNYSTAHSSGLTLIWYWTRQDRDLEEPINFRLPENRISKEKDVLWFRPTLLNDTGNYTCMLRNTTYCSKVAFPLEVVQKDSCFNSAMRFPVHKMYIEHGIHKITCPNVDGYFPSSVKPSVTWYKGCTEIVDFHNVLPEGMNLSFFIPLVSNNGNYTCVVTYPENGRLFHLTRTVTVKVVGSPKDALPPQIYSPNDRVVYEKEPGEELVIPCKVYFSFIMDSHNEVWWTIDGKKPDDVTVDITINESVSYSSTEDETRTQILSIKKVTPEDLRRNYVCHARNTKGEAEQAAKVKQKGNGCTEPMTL
# B1: Anti-IL-1RAP-C3-A3 mmIgG2a LALA (antibody, V domains shown)
# VH: EVQLLESGGGLVQPGGSLRLSCAASGFIFSHYGMSWVRQAPGKGLEWVSAISYDGEGTLYADSVKGRFTISRDNSKNTLYLQMNSLRAEDTAVYYCARFRYYTAFDYWGQGTLVTVSS
# VL: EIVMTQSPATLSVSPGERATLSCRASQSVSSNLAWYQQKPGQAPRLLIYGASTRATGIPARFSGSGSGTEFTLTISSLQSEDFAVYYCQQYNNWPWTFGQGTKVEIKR
# notes: also called anti-IL-1RAP-C3-A3 mouse IgG2a LALA
# Molecular target: T1, Recombinant mouse IL-1RAP-his (Sino …)
# Assay: SPR, mouse IgG2a LALA captured on anti-mouse IgG Fc CM5 chip, mouse IL-1RAP-his as analyte in a concentration series, 1:1 fit, one representative replicate
# Procedure: Anti-IL-1RAP-C3-A3 mouse IgG2a LALA was immobilized on a Series S CM5 sensor CHIP coupled with anti-mouse IgG Fc. Mouse IL-1RAP-his was injected over immobilized IgG2a LALA in concentration series in HBS-EP+ buffer. One representative replicate is presented. Plots are showing data expressed as number of resonance units (abbreviated RU; Y axis) vs. time (s, X axis). Dotted lines represent the measured data while solid lines represent simulated fits. KD: equilibrium dissociation constant; Ka: association constant; Kd: dissociation constant.
# Surface plasmon resonance (SPR) was used to measure the binding affinities of mouse IgG2a LALA molecules for mouse IL-1RAP. Affinity was measured on a BIACORE™ T200 instrument (BIACORE™ GE […]®) at 25° C. and analyzed with the BIACORE™ T200 Evaluation Software (v3.1). Measurements were performed on Series S CM5 sensor chips (BIACORE™ T200, BIACORE™, GE […]®, catalog no. BR100530) coupled with anti-mouse IgG Fc (BIACORE™, GE […]®, catalog no. BR100838) using a commercial amine coupling kit (BIACORE™, GE […]®, catalog no. BR100050). SPR measurements were performed with commercially available recombinant mouse IL-1RAP-his (Sino Biologicals, catalog no. 52657-M08H). The affinity to mouse IL-1RAP was assessed by immobilizing anti-mouse IL-1RAP mouse IgG2a LALA molecule and using mouse IL-1RAP protein as analyte. Around 150 RU of mouse IgG2a LALA was captured on fc2 of a Series S CM5 sensor chip coupled with anti-mouse IgG Fc. Mouse IL-1RAP-his was injected in multi cycle kinetic at different concentrations ranging from 0.14 to 100 nM, in HBS-EP+ buffer (BIACORE™, GE […]®, catalog no. BR100669) at a flow rate of 30 μl/min for 3 min on fc1 and fc2 (fc1 being used as reference). Dissociation was monitored for 15 min. After each cycle, the surface was regenerated with 60 μl of regeneration solution provided with anti-mouse IgG Fc capture kit (BIACORE™ GE […]®, catalog no. BR100838). Experimental data were processed using the 1:1 Langmuir kinetic fitting model. Measurements included zero-concentration samples for referencing. […]
binder,measurement,value
B1,Kd,0.557 nM
same,koff,7.6e-05 s⁻¹
same,kon,137000 M⁻¹ s⁻¹
